Data: publication PMC10397247
One block for each binder: values may come before it.

Assays:
P12bHq = biological target: T1, P12bHq; assay: two-hybrid library CCNG1;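 further: natural log of median RNA to DNA barcode read ratio; higher means stronger binding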
T1 chain: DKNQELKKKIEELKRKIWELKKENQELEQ

P1bHq = biological target: T2, P1bHq; assay: two-hybrid library CCNG1;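 further: natural log of median RNA to DNA barcode read ratio; higher means stronger binding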
T2 chain: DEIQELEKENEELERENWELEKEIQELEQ

P2bHq = biological target: T3, P2bHq; assay: two-hybrid library CCNG1;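 further: natural log of median RNA to DNA barcode read ratio; higher means stronger binding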
T3 chain: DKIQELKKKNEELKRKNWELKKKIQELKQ

P3bHq = biological target: T4, P3bHq; assay: two-hybrid library CCNG1;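 further: natural log of median RNA to DNA barcode read ratio; higher means stronger binding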
T4 chain: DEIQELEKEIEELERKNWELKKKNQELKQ

P4bHq = biological target: T5, P4bHq; assay: two-hybrid library CCNG1
T5 chain: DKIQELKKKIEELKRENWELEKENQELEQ

P5bHq = biological target: T6, P5bHq; assay: two-hybrid library CCNG1
T6 chain: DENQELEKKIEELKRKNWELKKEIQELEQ

P6bHq = biological target: T7, P6bHq; assay: two-hybrid library CCNG1
T7 chain: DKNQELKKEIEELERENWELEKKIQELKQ

P7bHq = biological target: T8, P7bHq; assay: two-hybrid library CCNG1
T8 chain: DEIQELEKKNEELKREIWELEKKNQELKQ

P8bHq = biological target: T9, P8bHq; assay: two-hybrid library CCNG1
T9 chain: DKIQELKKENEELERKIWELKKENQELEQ

P9bHq = biological target: T10, P9bHq; assay: two-hybrid library CCNG1
T10 chain: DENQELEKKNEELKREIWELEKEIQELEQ

P2-AA-1HAA-D = biological target: T11, P2-AA-1HAA-D; assay: two-hybrid library CCmax; details: mean of both orientations
T11 chain: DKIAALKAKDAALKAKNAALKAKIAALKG

P2-AA-1HAA-E = biological target: T12, P2-AA-1HAA-E; assay: two-hybrid library CCmax; details: mean of both orientations
T12 chain: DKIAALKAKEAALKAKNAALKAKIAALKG

P2-AA-1HAA-H = biological target: T13, P2-AA-1HAA-H; assay: two-hybrid library CCmax; details: mean of both orientations
T13 chain: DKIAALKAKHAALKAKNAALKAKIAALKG

P2-AA-1HAA-I = biological target: T14, P2-AA-1HAA-I; assay: two-hybrid library CCmax; details: mean of both orientations
T14 chain: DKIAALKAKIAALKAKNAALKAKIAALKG

P2-AA-1HAA-R = biological target: T15, P2-AA-1HAA-R; assay: two-hybrid library CCmax; details: mean of both orientations
T15 chain: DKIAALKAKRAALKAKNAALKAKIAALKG

P2-AA-1HAA-S = biological target: T16, P2-AA-1HAA-S; assay: two-hybrid library CCmax; details: mean of both orientations
T16 chain: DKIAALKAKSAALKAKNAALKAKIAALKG

P2-AA-1HAA-T = biological target: T17, P2-AA-1HAA-T; assay: two-hybrid library CCmax; details: mean of both orientations
T17 chain: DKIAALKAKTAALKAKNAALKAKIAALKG

P2-AA-1HAA-V = biological target: T18, P2-AA-1HAA-V; assay: two-hybrid library CCmax; details: mean of both orientations
T18 chain: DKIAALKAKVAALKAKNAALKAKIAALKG

P2-AA = biological target: T19, P2-AA; assay: two-hybrid library CCmax; details: mean of both orientations
T19 chain: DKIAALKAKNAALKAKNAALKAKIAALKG

4H1369-bH = biological target: T20, 4H1369-bH; assay: two-hybrid library CCNG1
T20 chain: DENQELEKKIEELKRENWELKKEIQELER

4H1446-bH = biological target: T21, 4H1446-bH; assay: two-hybrid library CCNG1
T21 chain: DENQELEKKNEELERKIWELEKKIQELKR

4H1845-bH = biological target: T22, 4H1845-bH; assay: two-hybrid library CCNG1
T22 chain: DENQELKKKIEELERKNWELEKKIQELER

4H2576-bH = biological target: T23, 4H2576-bH; assay: two-hybrid library CCNG1
T23 chain: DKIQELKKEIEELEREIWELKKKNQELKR

4H2610-bH = biological target: T24, 4H2610-bH; assay: two-hybrid library CCNG1
T24 chain: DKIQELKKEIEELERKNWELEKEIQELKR

4H2667-bH = biological target: T25, 4H2667-bH; assay: two-hybrid library CCNG1
T25 chain: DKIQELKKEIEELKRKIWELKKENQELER

4H2697-bH = biological target: T26, 4H2697-bH; assay: two-hybrid library CCNG1
T26 chain: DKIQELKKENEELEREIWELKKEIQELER

4H3189-bH = biological target: T27, 4H3189-bH; assay: two-hybrid library CCNG1
T27 chain: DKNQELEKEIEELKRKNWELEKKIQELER

4H331-bH = biological target: T28, 4H331-bH; assay: two-hybrid library CCNG1
T28 chain: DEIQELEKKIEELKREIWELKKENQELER

4H3606-bH = biological target: T29, 4H3606-bH; assay: two-hybrid library CCNG1
T29 chain: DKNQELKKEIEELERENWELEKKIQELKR

4H370-bH = biological target: T30, 4H370-bH; assay: two-hybrid library CCNG1
T30 chain: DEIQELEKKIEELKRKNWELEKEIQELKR

4H3782-bH = biological target: T31, 4H3782-bH; assay: two-hybrid library CCNG1
T31 chain: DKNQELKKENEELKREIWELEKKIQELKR

4H3843-bH = biological target: T32, 4H3843-bH; assay: two-hybrid library CCNG1
T32 chain: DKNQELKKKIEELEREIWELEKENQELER

4H4001-bH = biological target: T33, 4H4001-bH; assay: two-hybrid library CCNG1
T33 chain: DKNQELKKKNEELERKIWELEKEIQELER

4H462-bH = biological target: T34, 4H462-bH; assay: two-hybrid library CCNG1
T34 chain: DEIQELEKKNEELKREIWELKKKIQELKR

4H568-bH = biological target: T35, 4H568-bH; assay: two-hybrid library CCNG1
T35 chain: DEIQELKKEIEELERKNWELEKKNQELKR

4H607-bH = biological target: T36, 4H607-bH; assay: two-hybrid library CCNG1
T36 chain: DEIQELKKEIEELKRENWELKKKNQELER

4H687-bH = biological target: T37, 4H687-bH; assay: two-hybrid library CCNG1
T37 chain: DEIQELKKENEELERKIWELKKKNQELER

4H72-bH = biological target: T38, 4H72-bH; assay: two-hybrid library CCNG1
T38 chain: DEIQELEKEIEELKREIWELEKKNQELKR

4H797-bH = biological target: T39, 4H797-bH; assay: two-hybrid library CCNG1
T39 chain: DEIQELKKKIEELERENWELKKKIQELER

4H883-bH = biological target: T40, 4H883-bH; assay: two-hybrid library CCNG1
T40 chain: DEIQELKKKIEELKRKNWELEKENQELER

4H918-bH = biological target: T41, 4H918-bH; assay: two-hybrid library CCNG1
T41 chain: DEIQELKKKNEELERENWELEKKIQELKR

4H953-bH = biological target: T42, 4H953-bH; assay: two-hybrid library CCNG1
T42 chain: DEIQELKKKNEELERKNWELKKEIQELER

4H967-bH = biological target: T43, 4H967-bH; assay: two-hybrid library CCNG1
T43 chain: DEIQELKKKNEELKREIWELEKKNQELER

interaction score (P12bHq): -0.763
interaction score (P1bHq): -1.45
interaction score (P2bHq): -0.425
interaction score (P3bHq): -0.851
interaction score (P4bHq): 0.195
interaction score (P5bHq): -0.597
interaction score (P6bHq): 0.286
interaction score (P7bHq): 0.639
interaction score (P8bHq): -0.489
interaction score (P9bHq): 1.15
Binder: DKNQELKKKIEELKRKIWELKKENQELEQ [P12bHq]

interaction score (P2-AA-1HAA-D): 1.99
interaction score (P2-AA-1HAA-E): 2.02
interaction score (P2-AA-1HAA-H): 2.07
interaction score (P2-AA-1HAA-I): 2.05
interaction score (P2-AA-1HAA-R): 1.93
interaction score (P2-AA-1HAA-S): 2.1
interaction score (P2-AA-1HAA-T): 1.69
interaction score (P2-AA-1HAA-V): 2.02
interaction score (P2-AA): 1.88
Binder: DEIAALEAETAALEAENAALEAEIAALEG [P1-AA-1HAA-T]

interaction score (4H1369-bH): -1.31
interaction score (4H1446-bH): 0.331
interaction score (4H1845-bH): -0.384
interaction score (4H2576-bH): 1.67
interaction score (4H2610-bH): 0.958
interaction score (4H2667-bH): -0.993
interaction score (4H2697-bH): 0.213
interaction score (4H3189-bH): -0.241
interaction score (4H331-bH): 1.28
interaction score (4H3606-bH): 0.235
interaction score (4H370-bH): -0.934
interaction score (4H3782-bH): 0.448
interaction score (4H3843-bH): 1.38
interaction score (4H4001-bH): 1.01
interaction score (4H462-bH): 0
interaction score (4H568-bH): 0.634
interaction score (4H607-bH): -1.86
interaction score (4H687-bH): -1.73
interaction score (4H72-bH): 0.492
interaction score (4H797-bH): 0.552
interaction score (4H883-bH): 0.137
interaction score (4H918-bH): -0.116
interaction score (4H953-bH): -0.534
interaction score (4H967-bH): -1.62
Binder: DENQELEKKIEELERKIWELKKKNQELKR [4H1328-bH]
